The target of experiment [1] is TagBFP-RXR (retinoid X receptor alpha tagged with TagBFP) (UniProt P19793).
The target in experiment [2] is T1, mCherry-RXR (retinoid X receptor alpha, N-terminally tagged with mCherry) (UniProt P19793 1-462).
T1 sequence (looked up): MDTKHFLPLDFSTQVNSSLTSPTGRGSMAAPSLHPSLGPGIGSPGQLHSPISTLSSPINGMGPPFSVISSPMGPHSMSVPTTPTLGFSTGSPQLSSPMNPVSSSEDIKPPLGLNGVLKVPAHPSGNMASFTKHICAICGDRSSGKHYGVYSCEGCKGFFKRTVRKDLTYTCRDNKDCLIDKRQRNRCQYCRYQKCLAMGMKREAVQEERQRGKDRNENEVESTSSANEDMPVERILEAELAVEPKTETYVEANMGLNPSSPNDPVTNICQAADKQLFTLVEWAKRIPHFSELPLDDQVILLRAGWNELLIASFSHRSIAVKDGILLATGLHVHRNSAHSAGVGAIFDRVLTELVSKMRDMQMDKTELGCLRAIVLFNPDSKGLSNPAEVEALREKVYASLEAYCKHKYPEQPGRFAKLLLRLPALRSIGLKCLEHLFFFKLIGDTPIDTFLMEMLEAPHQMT
The experiment is described as follows: cell-based or functional assay.

The target in experiment [3] is mCherry-RXR (retinoid X receptor alpha, N-terminally tagged with mCherry) (UniProt P19793).

From publication PMC9943875, “Agonist-controlled competition of RAR and VDR nuclear receptors for heterodimerization with RXR is manifested in their DNA binding” (The Journal of Biological Chemistry, 2023) come the findings set out here.

B1: EGFP-VDR (vitamin D receptor, N-terminally tagged with EGFP) (receptor, UniProt P11473 1-427, looked up)
chain: MEAMAASTSLPDPGDFDRNVPRICGVCGDRATGFHFNAMTCEGCKGFFRRSMKRKALFTCPFNGDCRITKDNRRHCQACRLKRCVDIGMMKEFILTDEEVQRKREMILKRKEEEALKDSLRPKLSEEQQRIIAILLDAHHKTYDPTYSDFCQFRPPVRVNDGGGSHPSRPNSRHTPSFSGDSSSSCSDHCITSSDMMDSSSFSNLDLSEEDSDDPSVTLELSQLSMLPHLADLVSYSIQKVIGFAKMIPGFRDLTSEDQIVLLKSSAIEVIMLRSNESFTMDDMSWTCGNQDYKYRVSDVTKAGHSLELIEPLIKFQVGLKKLNLHEEEHVLLMAICIVSPDRPGVQDAALIEAIQDRLSNTLQTYIRCRHPPPGSHLLYAKMIQKLADLRSLNEEHSKQYRCLSFQPECSMKLTPLVLEVFGNEIS
In experiment [1], B1 had a slow fraction ρ2 of EGFP-RAR by FCS in triple-transfected cells (EGFP-RAR, mCherry-VDR, TagBFP-RXR), no ligand, against ρ2 ∼ 0.38 in cells with RAR and RXR only of 0.32. Moreover, in experiment [2], the “slow (DNA-bound) fraction ρ2 of EGFP-VDR by FCS in live HEK293 cells, mCherry-RXR coexpressed and 100 nM calcitriol added together” value worked out at 2 fold.

B2: EGFP-RAR (retinoic acid receptor alpha, N-terminally tagged with EGFP) (receptor)
chain: MASNSSSCPTPGGGHLNGYPVPPYAFFFPPMLGGLSPPGALTTLQHQLPVSGYSTPSPATIETQSSSSEEIVPSPPSPPPLPRIYKPCFVCQDKSSGYHYGVSACEGCKGFFRRSIQKNMVYTCHRDKNCIINKVTRNRCQYCRLQKCFEVGMSKESVRNDRNKKKKEVPKPECSESYTLTPEVGELIEKVRKAHQETFPALCQLGKYTTNNSSEQRVSLDIDLWDKFSELSTKCIIKTVEFAKQLPGFTTLTIADQITLLKAACLDILILRICTRYTPEQDTMTFSDGLTLNRTQMHNAGFGPLTDLVFAFANQLLPLEMDDAETGLLSAICLICGDRQDLEQPDRVDMLQEPLLEALKVYVRKRRPSRPHMFPKMLMKITDLRSISAKGAERVITLKMEIPGSMPPLIQEMLENSEGLDTLSGQPGGGGRDGGGLAPPPGSCSPSLSPSSNRSSPATHSP
In experiment [3], B2 gave a slow (DNA-bound) fraction ρ2 of EGFP-RAR by FCS in live HEK293 cells cotransfected with mCherry-RXR, no ligand (∼22% for EGFP-RAR alone) of 0.38.
